The target in data set [1] is C. elegans Vps4^E219Q (as used alone in light scattering and EM) (C. elegans). As to the kind of experiment: SEC-MALS. Background: In gel filtration, larger molecules generally elute earlier.
Data set [2] has as its target C. elegans Vps32 (full length, wild type) (C. elegans). As to the kind of experiment: cryo-EM imaging.
The target of data set [3] is C. elegans Vps32^E94K (C. elegans). The experiment in a line: SEC.
Data set [4] deals with the molecule itself. As to the kind of experiment: negative staining EM.

By stoichiometry N is commonly meant a count of units in the complex or per binding partner. On to “C. elegans Vps4^E219Q (as used alone in light scattering and EM) (enzyme)”, for which, in data set [1], the stoichiometry N came to 6.

In data set [2], “C. elegans Vps32 (full length, wild type) (natural protein)” had a stoichiometry N of 800.

Consider C. elegans Vps32^E94K (natural protein), for which the percent of the total protein in oligomers in data set [3] was under 5%.

B1: yeast Snf7^R52E (natural protein)
chain: MWSSLFGWTSSNAKNKESPTKAIVRLREHINLLSKKQSHLRTQITNQENEAEIFLTKGNKVMAKNALKKKKTIEQLLSKVEGTMESMEQQLFSIESANLNLETMRAMQEGAKAMKTIHSGLDIDKVDETMDEIREQVELGDEISDAISRPLITGANEVDEDELDEELDMLAQENANQETSKIVNNNVNAAPISENKVSLPSVPSNKIKQSENSVKDGEEEEDEEDEDEKALRELQAEMGL
Consider B1, for which, in data set [4], the binding result was “binds”.

Source of the values: PMC4164947 (The Journal of Cell Biology, 2014).
